According to paper PMC11193222, “The serine-rich repeat glycoprotein Srr2 mediates Streptococcus agalactiae interaction with host fibronectin” (BMC Microbiology, 2024):

Columns and labels:
[1] = target: recombinant Srr2 binding region (rSrr2-BR) (Streptococcus agalactiae (GBS) strain BM110) (UniProt Q3S2Y8); assay: SPR; rSrr2 proteins amine-coupled to a CM5 chip (Biacore X-100); Fn injected; 25 °C, HEPES-EP+ pH 7.4, 0.15 M NaCl, 30 uL/min; steady-state fit, 1:1 model
[2] = target: recombinant Srr2 binding region (rSrr2-BR) (Streptococcus agalactiae (GBS) strain BM110) (UniProt Q3S2Y8); assay: ELISA; Srr2 proteins coated on microtiter wells (1 ug/well, 0.1 M sodium carbonate pH 9.5); soluble Fn (up to 240 nM) or Fbg (up to 7.5 nM) for 1 h; detected with mouse anti-Fn or anti-Fbg IgG; apparent Kd; in a further set increasing NaCl (0 to 1 M) strongly impaired the binding to rSrr2-BR
[3] = target: human plasma fibronectin (Fn) (human); assay: ELISA; apparent; soluble Srr2-BR on immobilized Fn
human fibrinogen (Fbg) = human fibrinogen (Fbg) (human, UniProt P02671 36-866); P02675 45-491; P02679 27-453, Plasma-derived, disulfide-linked hexamer, glycosylated. Chains are the circulating forms by convention: A-alpha 610 aa, B-beta 461 aa, gamma-A 411 aa (the canonical P02679 sequence is gamma-B, so gamm); assay: ELISA; Srr2 proteins coated on microtiter wells (1 ug/well, 0.1 M sodium carbonate pH 9.5); soluble Fn (up to 240 nM) or Fbg (up to 7.5 nM) for 1 h; detected with mouse anti-Fn or anti-Fbg IgG; apparent Kd; in a further set increasing NaCl (0 to 1 M) strongly impaired the binding to rSrr2-BR; details: both partners purified

human plasma fibronectin (Fn) (human), sequence (P02751 other isoform, or with tags, fused parts or gaps, chain 1 of 2): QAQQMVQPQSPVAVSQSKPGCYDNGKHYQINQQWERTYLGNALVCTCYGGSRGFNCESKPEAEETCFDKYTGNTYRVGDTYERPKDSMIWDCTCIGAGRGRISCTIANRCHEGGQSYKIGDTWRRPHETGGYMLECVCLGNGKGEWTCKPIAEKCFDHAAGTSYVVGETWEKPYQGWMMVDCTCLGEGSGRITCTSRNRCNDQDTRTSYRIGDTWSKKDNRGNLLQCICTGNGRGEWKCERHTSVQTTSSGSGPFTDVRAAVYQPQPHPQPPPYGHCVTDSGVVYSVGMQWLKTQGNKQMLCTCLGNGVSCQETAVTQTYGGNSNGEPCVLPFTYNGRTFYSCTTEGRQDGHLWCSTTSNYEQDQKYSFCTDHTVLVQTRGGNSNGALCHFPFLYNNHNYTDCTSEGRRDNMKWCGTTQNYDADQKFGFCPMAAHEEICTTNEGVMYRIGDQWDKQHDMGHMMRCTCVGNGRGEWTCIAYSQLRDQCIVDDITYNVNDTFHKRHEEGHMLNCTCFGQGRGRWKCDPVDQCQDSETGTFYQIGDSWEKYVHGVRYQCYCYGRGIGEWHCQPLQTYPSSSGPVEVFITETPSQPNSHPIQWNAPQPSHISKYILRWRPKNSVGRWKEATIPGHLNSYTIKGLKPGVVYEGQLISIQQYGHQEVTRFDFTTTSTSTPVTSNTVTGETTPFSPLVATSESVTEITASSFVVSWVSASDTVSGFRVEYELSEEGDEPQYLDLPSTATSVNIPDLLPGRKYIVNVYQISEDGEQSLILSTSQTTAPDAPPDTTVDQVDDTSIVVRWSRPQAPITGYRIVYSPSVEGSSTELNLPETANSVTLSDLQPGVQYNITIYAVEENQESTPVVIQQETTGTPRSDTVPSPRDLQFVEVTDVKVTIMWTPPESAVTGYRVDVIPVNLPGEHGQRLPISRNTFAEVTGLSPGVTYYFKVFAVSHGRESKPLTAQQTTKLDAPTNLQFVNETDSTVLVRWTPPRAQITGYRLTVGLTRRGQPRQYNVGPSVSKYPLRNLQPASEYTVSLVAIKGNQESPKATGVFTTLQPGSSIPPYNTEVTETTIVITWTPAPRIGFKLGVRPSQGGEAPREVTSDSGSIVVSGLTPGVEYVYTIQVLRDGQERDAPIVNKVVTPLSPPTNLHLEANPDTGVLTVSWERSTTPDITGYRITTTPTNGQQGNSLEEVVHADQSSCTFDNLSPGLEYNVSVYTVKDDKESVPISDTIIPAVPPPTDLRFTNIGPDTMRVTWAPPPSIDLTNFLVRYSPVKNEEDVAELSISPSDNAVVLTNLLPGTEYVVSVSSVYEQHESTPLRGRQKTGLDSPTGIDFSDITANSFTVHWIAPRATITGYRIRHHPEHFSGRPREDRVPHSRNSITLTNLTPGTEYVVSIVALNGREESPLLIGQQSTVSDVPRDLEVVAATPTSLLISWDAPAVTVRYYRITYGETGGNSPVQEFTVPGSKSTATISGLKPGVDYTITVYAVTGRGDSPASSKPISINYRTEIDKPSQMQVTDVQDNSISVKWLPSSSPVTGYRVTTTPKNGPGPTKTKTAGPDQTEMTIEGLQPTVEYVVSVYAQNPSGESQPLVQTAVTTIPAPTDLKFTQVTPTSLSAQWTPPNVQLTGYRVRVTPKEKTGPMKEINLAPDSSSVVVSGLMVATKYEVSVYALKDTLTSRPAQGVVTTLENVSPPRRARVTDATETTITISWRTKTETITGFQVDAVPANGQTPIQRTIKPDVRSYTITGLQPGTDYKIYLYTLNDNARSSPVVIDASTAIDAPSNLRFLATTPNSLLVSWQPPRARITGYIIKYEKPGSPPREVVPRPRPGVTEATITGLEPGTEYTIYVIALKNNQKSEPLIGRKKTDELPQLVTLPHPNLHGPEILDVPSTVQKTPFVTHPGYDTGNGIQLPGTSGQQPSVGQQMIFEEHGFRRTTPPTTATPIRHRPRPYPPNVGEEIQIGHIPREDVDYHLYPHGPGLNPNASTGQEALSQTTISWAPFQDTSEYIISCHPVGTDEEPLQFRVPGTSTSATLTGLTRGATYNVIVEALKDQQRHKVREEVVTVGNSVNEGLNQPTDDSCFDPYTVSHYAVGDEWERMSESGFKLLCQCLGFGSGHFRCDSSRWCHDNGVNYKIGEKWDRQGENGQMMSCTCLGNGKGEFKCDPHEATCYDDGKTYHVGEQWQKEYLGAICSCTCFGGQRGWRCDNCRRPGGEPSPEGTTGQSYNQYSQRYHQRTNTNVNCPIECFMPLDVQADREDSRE
human plasma fibronectin (Fn) (human), sequence (P02751 other isoform, or with tags, fused parts or gaps, chain 2 of 2): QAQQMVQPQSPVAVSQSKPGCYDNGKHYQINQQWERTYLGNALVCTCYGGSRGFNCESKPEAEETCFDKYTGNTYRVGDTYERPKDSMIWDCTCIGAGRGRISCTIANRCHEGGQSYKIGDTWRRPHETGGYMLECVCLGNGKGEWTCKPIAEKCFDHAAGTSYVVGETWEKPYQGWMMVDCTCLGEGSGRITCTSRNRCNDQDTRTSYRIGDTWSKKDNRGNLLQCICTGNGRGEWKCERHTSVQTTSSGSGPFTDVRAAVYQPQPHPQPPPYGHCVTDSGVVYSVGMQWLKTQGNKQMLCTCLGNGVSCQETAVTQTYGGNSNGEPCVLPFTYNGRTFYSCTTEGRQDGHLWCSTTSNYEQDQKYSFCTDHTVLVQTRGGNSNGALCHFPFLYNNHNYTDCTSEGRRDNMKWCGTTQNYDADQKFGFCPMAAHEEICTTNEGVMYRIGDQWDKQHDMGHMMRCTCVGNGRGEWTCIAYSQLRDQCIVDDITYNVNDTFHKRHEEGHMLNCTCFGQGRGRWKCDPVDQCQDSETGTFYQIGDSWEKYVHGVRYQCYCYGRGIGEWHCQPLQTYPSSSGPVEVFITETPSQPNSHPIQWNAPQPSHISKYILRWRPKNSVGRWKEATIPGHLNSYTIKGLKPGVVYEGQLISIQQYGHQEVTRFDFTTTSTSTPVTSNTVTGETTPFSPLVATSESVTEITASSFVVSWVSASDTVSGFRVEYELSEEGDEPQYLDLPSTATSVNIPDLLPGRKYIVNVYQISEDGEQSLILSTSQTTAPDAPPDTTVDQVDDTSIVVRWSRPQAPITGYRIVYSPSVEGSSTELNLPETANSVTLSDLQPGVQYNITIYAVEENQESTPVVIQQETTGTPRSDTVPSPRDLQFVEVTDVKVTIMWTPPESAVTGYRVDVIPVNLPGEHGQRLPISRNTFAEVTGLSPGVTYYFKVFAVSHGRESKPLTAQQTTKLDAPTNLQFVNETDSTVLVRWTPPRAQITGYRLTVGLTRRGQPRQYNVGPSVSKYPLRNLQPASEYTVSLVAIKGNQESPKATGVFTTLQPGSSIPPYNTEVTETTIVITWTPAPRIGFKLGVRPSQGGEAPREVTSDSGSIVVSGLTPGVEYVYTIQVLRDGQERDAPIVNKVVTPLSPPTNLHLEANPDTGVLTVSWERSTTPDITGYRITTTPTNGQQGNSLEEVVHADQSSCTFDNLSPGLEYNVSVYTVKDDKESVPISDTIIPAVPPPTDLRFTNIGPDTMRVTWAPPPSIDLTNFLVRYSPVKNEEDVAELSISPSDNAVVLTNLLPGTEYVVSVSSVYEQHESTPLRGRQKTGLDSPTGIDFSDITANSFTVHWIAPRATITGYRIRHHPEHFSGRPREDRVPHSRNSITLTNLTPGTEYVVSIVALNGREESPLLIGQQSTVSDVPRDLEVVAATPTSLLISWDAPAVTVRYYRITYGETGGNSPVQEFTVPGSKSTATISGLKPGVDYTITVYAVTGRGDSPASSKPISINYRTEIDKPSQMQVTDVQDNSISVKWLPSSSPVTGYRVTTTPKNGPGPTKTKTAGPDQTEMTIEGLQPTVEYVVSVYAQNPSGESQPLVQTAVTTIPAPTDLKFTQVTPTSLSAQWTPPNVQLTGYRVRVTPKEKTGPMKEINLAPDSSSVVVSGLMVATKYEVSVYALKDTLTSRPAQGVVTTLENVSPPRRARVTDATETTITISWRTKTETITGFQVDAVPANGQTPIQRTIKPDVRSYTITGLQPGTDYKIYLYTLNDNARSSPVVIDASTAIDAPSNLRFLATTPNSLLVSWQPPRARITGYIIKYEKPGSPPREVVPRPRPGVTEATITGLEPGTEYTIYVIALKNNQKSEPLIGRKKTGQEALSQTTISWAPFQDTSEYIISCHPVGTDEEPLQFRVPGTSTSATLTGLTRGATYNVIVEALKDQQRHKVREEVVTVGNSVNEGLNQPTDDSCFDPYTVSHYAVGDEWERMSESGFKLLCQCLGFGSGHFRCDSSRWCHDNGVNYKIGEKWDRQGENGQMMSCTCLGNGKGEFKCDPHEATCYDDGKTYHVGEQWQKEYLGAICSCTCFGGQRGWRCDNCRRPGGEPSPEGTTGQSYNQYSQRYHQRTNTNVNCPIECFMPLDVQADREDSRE

human plasma fibronectin (Fn) (natural protein)
Kd [1]: 92 nM
Kd [2]: 30 nM

B1: recombinant Srr2 binding region (rSrr2-BR) (domain or fragment)
chain: EAATTARVQPRAMRVVSSASDMETLPAALISGEGDVTTVQGQDVTDKLQNLDIKLSGGVQAKAGVINMDKSESMHMSLKFTIDSVNRGDTFEIKLSDNIDTNGASNYSIVEPIKSPTGEVYATGIYDSQKKSIVYSFTDFAASKNNINGILDIPLWPDDTTVQNTKEDVLFSVKIKDQEATIKETVKYDPPVRIDFAGGVSVDSRITNIDDVGKKMTYISQINVDGKSLYNYNGLYTRIYNYSKESTADLKNSTIKIYKTTSDNIVESMVQDYSSMEDVTSKFANSYPEKGWYDIYWGQFIASNETYVIVVETPFTNAVTLNTTLSDYNENNGVEHNHTYSSESGYSDVNAQ
Kd [3]: 629 nM
Kd (human fibrinogen (Fbg)): 0.45 ± 0.02 nM
